# Data taken from patent publication US20170107294A1 (NORDLANDSSYKEHUSET HF, published 2017).
# B1: 18D11 IgG1 F(ab')2 (Diatec) (other)
# VH: EVQLVESGGGLMQPKGSLKLSCAASGFTFKTYALNWVRQAPGTGLEWVARIRSKSNNYTTYYADSVKDRFTISRDDSQNMLYLQMNNLKTEDTAMYYCVRPQSGTSFAYWGQGTLVTVSAA
# VL: NIVLTQSPASLAVSLGQRATISCRASESVDSYGNSFMHWYQQKPGQPPKLLIYLASNLESGVPARFSGSGSRTDFTLTIDPVEADDVATYYCQQNNGDPYTFGGGTKLEIIR
# notes: F(ab')2 fragment of the mouse IgG1 clone 18D11, bought; also called 18D11 F(ab)92; F(ab9)2 18D11
# B2: recombinant 18D11 (r18D11), recombinant anti-human CD14 IgG2/4 Ab (antibody)
# heavy: EVQLVESGGGLMQPKGSLKLSCAASGFTFKTYALNWVRQAPGTGLEWVARIRSKSNNYTTYYADSVKDRFTISRDDSQNMLYLQMNNLKTEDTAMYYCVRPQSGTSFAYWGQGTLVTVSAASTKGPSVFPLAPCSRSTSESTAALGCLVKDYFPEPVTVSWNSGALTSGVHTFPAVLQSSGLYSLSSVVTVPSSNFGTQTYTCNVDHKPSNTKVDKTVERKCCVECPPCPAPPVAGPSVFLFPPKPKDTLMISRTPEVTCVVVDVSQEDPEVQFNWYVDGVEVHNAKTKPREEQFNSTYRVVSVLTVLHQDWLNGKEYKCKVSNKGLPSSIEKTISKAKGQPREPQVYTLPPSQEEMTKNQVSLTCLVKGFYPSDIAVEWESNGQPENNYKTTPPVLDSDGSFFLYSRLTVDKSRWQEGNVFSCSVMHEALHNHYTQKSLSLSLGK
# light: NIVLTQSPASLAVSLGQRATISCRASESVDSYGNSFMHWYQQKPGQPPKLLIYLASNLESGVPARFSGSGSRTDFTLTIDPVEADDVATYYCQQNNGDPYTFGGGTKLEIIRTVAAPSVFIFPPSDEQLKSGTASVVCLLNNFYPREAKVQWKVDNALQSGNSQESVTEQDSKDSTYSLSSTLTLSKADYEKHKVYACEVTHQGLSSPVTKSFNRGEC
# notes: Mouse/human chimera: murine variable regions, human IgG2/4 hybrid heavy constant region (CH1 and hinge from IgG2, CH2 and CH3 from IgG4), human kappa; Made in HEK293-EBNA cells; also called recombinant anti-human CD14 Ab
# B3: recombinant Mil2 (rMil2), recombinant anti-porcine CD14 IgG2/4 Ab (antibody)
# heavy: QVRLQQPGAELVRPGASVKLSCKASGYTFTTYWMNWVKQRPEDGLEWIGRIDPYDSETHYNQNFKDKAILTVDKSSSTAYMQLSSLTYEDSAVYYCTRKEGRQWGAYFDYWGQGTTLTVSSASTKGPSVFPLAPCSRSTSESTAALGCLVKDYFPEPVTVSWNSGALTSGVHTFPAVLQSSGLYSLSSVVTVPSSNFGTQTYTCNVDHKPSNTKVDKTVERKCCVECPPCPAPPVAGPSVFLFPPKPKDTLMISRTPEVTCVVVDVSQEDPEVQFNWYVDGVEVHNAKTKPREEQFNSTYRVVSVLTVLHQDWLNGKEYKCKVSNKGLPSSIEKTISKAKGQPREPQVYTLPPSQEEMTKNQVSLTCLVKGFYPSDIAVEWESNGQPENNYKTTPPVLDSDGSFFLYSRLTVDKSRWQEGNVFSCSVMHEALHNHYTQKSLSLSLGK
# light: DIVMTQSQKFMSTSVGDRVSVTCKASQYVGTNVAWYQQKPGQSPKALIQSASYRCSGVPDRFTGSGSGTDFTLTISNVQSEDLADYFCQQYNTYVTFGGGTKLELKRTVAAPSVFIFPPSDEQLKSGTASVVCLLNNFYPREAKVQWKVDNALQSGNSQESVTEQDSKDSTYSLSSTLTLSKADYEKHKVYACEVTHQGLSSPVTKSFNRGEC
# notes: Mouse/human chimera with human IgG2/4 hybrid heavy constant region and human kappa
# Assays:
# human CD14 = target: T1, human CD14 (human, UniProt P08571 20-345); test: flow cytometry, human whole blood, displacement of 18D11 mIgG1 from monocytes
# T1 construct: whole, on cells; also called CD14 on human monocytes
# T1 sequence (looked up): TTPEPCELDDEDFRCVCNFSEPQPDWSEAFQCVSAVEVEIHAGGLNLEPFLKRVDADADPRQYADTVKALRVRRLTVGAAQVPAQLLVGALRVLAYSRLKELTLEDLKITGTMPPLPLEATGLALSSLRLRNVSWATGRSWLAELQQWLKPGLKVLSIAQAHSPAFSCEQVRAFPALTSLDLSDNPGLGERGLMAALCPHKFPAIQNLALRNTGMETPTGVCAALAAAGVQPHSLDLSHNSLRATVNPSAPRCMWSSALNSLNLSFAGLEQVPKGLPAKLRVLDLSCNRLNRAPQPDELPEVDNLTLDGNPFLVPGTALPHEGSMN
# Source text: Fresh human or porcine whole blood was drawn into tubes containing the anticoagulants lepirudin (Refludan; Pharmion, Copenhagen, Denmark) or EDTA, respectively. […] Endotoxin-free Dulbecco phosphate buffered saline, PBS (Sigma-Aldrich), was used for diluting the Abs. […] Their binding was detected either by using a secondary PEconjugated anti-mouse IgG or through direct FITC fluorescence. Erythrocytes were lysed using FACS Lysing solution (BD Biosciences, Franklin Lakes, N.J.; human blood) or a solution of 0.16 M ammonium chloride, 10 mM sodium bicarbonate, 0.12 mM EDTA (Tritiplex III) and 0.04% (v/v) paraformaldehyde (porcine blood). In subsequent flow cytometry analyses, human monocyte and porcine granulocyte populations were selected based on the forward scatter-side scatter dot plot, and CD14 binding was recorded as mean or median fluorescence intensity, respectively.
# [1] = target: T2, human FcgRIIIb ectodomains fused to GST (human; Schistosoma japonicum, UniProt O75015 17-200); test: ELISA, coated Ab, GST-fused receptor
# T2 construct: extracellular domain; also called hFcgRIIIb; not shown: Schistosoma japonicum GST
# Experimental: (§1) Ninety-six-well plates (Nunc, Roskilde, Denmark) were coated with serial dilution of the Abs (6.0-0.09 mg/ml) and incubated overnight at 4° C. followed by washing three times with PBS/Tween (pH 7.4). The wells were blocked with 4% skimmed milk (Neogen Europe, Auchincruive, U.K.) for 1 h at room temperature and then washed in PBS/Tween (pH 6.0). Purified hFcRn-GST or pFcRn-GST (1 mg/ml) were diluted in 4% skimmed milk in PBS/Tween (pH 6.0) and preincubated with an HRP-conjugated anti-GST Ab (GE Healthcare U.K., Buckinghamshire, U.K.) diluted 1:5000 and added to the wells. The plates were incubated for 1 h at room temperature and washed with PBS/Tween (pH 6.0). Bound receptor was detected by adding 100 ml of 3,39,5,59-tetramethylbenzidine substrate (Calbiochem-Novabiochem, Nottingham, U.K.). The absorbance was measured at 450 nm using a Sunrise TECAN spectrophotometer. The assay described above was also performed using PBS/Tween (pH 7.4) in all steps. The same setup was used with GST-fused versions of hFcgRI, hFcgRIIa (allotype His131), hFcgRIIb, hFcgRIIIa (allotype Val158), and hFcgRIIIb (1 mg/ml each). In addition, a biotinylated human C1q (hC1 q; 4 mg/ml) preparation was incubated with the Abs and detected using ALP-conjugated streptavidin (GE Healthcare). Absorbance was measured at 405 nm.
# [2] = target: T3, human FcgRI ectodomains fused to GST (human; Schistosoma japonicum, UniProt P12314 16-292); test: ELISA, coated Ab, GST-fused receptor
# T3 construct: extracellular domain; also called hFcgRI; not shown: Schistosoma japonicum GST
# Experimental: as §1
# [3] = target: T4, human FcgRIIb ectodomains fused to GST (human; Schistosoma japonicum, UniProt P31994 43-217); test: ELISA, coated Ab, GST-fused receptor
# T4 construct: extracellular domain; also called hFcgRIIb; not shown: Schistosoma japonicum GST
# T4 sequence (looked up): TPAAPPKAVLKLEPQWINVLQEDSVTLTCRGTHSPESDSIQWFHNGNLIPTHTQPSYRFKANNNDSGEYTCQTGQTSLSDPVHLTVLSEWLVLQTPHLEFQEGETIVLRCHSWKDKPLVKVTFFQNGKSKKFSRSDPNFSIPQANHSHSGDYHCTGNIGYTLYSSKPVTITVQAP
# Experimental: as §1
# [4] = target: T5, human FcgRIIIa (allotype Val158) ectodomains fused to GST (human; Schistosoma japonicum, UniProt P08637 17-208); test: ELISA, coated Ab, GST-fused receptor
# T5 construct: extracellular domain; also called hFcgRIIIa; not shown: Schistosoma japonicum GST
# Experimental: as §1
# [5] = target: T6, human C1q (hC1q), biotinylated (human, UniProt P02745 23-245; P02746 28-253; P02747 29-245, biotinylated); test: ELISA, coated Ab, biotinylated hC1q
# T6 construct: also called complement component C1q
# T6 sequence (P02745 23-245 limits assumed, chain 1 of 3): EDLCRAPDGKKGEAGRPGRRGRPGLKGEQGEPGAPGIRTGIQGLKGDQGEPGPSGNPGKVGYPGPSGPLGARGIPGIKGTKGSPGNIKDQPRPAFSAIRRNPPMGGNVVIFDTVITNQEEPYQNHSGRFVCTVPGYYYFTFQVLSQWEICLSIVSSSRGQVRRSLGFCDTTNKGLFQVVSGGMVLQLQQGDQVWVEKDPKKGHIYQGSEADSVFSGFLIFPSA
# T6 sequence (P02746 28-253 limits assumed, chain 2 of 3): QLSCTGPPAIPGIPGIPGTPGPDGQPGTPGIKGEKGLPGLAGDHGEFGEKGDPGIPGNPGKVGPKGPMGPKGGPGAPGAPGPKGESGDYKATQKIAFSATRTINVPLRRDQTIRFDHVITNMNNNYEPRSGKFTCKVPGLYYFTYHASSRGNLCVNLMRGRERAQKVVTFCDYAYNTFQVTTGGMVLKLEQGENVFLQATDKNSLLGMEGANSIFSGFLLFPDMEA
# T6 sequence (P02747 29-245 limits assumed, chain 3 of 3): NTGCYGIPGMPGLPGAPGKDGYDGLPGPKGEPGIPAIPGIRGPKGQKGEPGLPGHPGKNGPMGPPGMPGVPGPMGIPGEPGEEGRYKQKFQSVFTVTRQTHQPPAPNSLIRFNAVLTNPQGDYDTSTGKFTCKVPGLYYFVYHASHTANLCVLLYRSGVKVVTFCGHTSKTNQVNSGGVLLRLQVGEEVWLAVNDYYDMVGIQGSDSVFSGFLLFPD
# Experimental: as §1
Binder,binding result (human CD14),binding result [1],binding result [2],binding result [3],binding result [4],binding result [5]
B1,binds,–,–,–,–,–
B2,–,no binding,no binding,no binding,no binding,no binding
B3,–,no binding,no binding,no binding,no binding,no binding
